Measurements reported in the nanobody polyreactivity screen of Harvey et al. (2022).

Assay: yeast display, Sf9 membrane polyspecificity reagent, FACS + sequencing; frameworks hold sequencing errors
Summary of the method: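 A nanobody's polyreactivity label depends on the gate it was sorted from. Yeast display cells were stained with 10% biotinylated, detergent-solubilized Sf9 membrane reagent for 1 hour at 4 °C, enriched on streptavidin microbeads and sorted by FACS. The low and high (top ~1%) gates were set on anti-HA fluorescence for expression and streptavidin fluorescence for reagent binding.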

Sequence	polyreactivity (PSR sort gate)
QVQLVESGGGLVQAGGSLRISCAASGRIFSYNAMGWYRQAPGKERELVASISRGGSTYADSVKGRFTISRDNAKNTVYLQMNRLQPADTAVYYCNAVHFSYEYDYWGQGTQVTVSS	high polyreactivity
QVQLVESGGGLVQAGGSLRISCAASGRIFTPNAMGWYRQAPGKERELVAAITWSGDNTYADSVKGRFTISRDNAKKTVYLHMNTLKPEDTAVYYCAAAYGYGHKKYGYWGQGTQVTVSS	low polyreactivity
QVQLVESGGGLVQAGGSLRISCAASGRIFYNNDMAWYRQAPGKERELVAAITVRGSITYYADSVKGRFTISRDNAKTTVYLHMNSLKPEDTAVYYCATEWVNRLYSWGQGTQVTVSS	low polyreactivity
QVQLVESGGGLVQAGGSLRISCAASGRIFYYYDMGWYRQAPGKERELVAAISRSGGRTYYADSVKGRFTISRDNANNTVYLHMNSLKPEDTAVYYCNVVRQGGTLGYDYWGQGTQVTVSS	high polyreactivity
QVQLVESGGGLVQAGGSLRISCAASGRILYLNAMGWYRQAPGIEREFVAAISKSGGTTYYADSVKGRFTISRDKAKHTDYLQMNSLKPEDTAVFYCAVDIVRCGRDSWGQGTQVTVSS	low polyreactivity
QVQLVESGGGLVQAGGSLRISCAASGRIYNRNAMGWYRQAPGKERELVAAIRSDGTTNYADSVKGRFTISRDNAKNTVYLQMISLKPEDTAVYYCNAEEGYHWWIIPEEDDYWGQGTQVTVSS	low polyreactivity
QVQLVESGGGLVQAGGSLRISCAASGRIYVYNVMGWSRQAPGKETELVAAISWGTGSTYADSVKGRFTISRDNAKNTVYLQMNSLKPEDTAVYYCAAAADYYYDHDYWGQGTQVTVSS	low polyreactivity
QVQLVESGGGLVQAGGSLRISCAASGRTFCNNAMGWYRQAPGKERELVAAITSTGSRTYYADSVKGRFTISRDNAKNTVYLQMNSLKPEDTAVYYCNRVSHLDYYWGQGTQVTVSS	high polyreactivity
QVQLVESGGGLVQAGGSLRISCAASGRTFLVYTMGWYRQAPGKERELVAAISWSDGSTYYADSVKGRFTISRDNAKNTVYLQMNSLKPEDTAVYYCAARRTGYLYRYGYWGQGTQVTVSS	low polyreactivity
QVQLVESGGGLVQAGGSLRISCAASGRTFSRYAMGWYRQAPGKERELVAAITRGGGGTYYADSVKGRFTISRDNAKNTVYLQMNSLKPEDTAVYYCNRVLLPGPQYQWGKAYDYWGQGTQVTVSS	high polyreactivity
QVQLVESGGGLVQAGGSLRISCAASGRTFWKYAMGWYRQAPGKERELVAAITASGARTYYADSVKGRFTISRDNAKNTVYLQMNSLKPEDTAVYYCNAGSVSDRQMDYWGQGTQVTVSS	low polyreactivity
QVQLVESGGGLVQAGGSLRISCAASGRTGKNAMVWYRQARGNERELVAASRYNGGSTYYADSVKGRFTISRDNANNTVYLQKNIMKPEYTAVYYCAAAFRRHNGSAFNYWGHGTQVTVSS	high polyreactivity
QVQLVESGGGLVQAGGSLRISCAASGRTLRYYAMGWYRQAPGKERELVAAITSSDRTYYADSVKGRFTISRDNAKNTVYLQMNSLKPEDTAVYYCAAYRATQFGYYYWGQGTQVTVSS	high polyreactivity
QVQLVESGGGLVQAGGSLRISCAASGSIFASKTMGWYRQAPGKERELVAGITKIGSSTYYADSVKGRFTISRDNAKNTVYLQMNSLKPEETAVYYCNAYLSPKQPLSPPEPTFEGGYWGQGTQVTVSS	low polyreactivity
QVQLVESGGGLVQAGGSLRISCAASGSIFDLNAMGWYRQAPGKERELVAAISSGGRTTYADSVKGRFTISRDNAKNTVYLQMNSLKPEDTAFYYCNAVGDVFPRTGPIYDYWGQGSQVTVSS	high polyreactivity
QVQLVESGGGLVQAGGSLRISCAASGSIFPFYAMGWYRQAPGKERELVAAISDRGGSTYYADSVKGRFTISRDNAKNTVYLQMNSLKPEDTAVYYCAKGGEVSQGYTDEYDYWGQGTQVTVSS	low polyreactivity
QVQLVESGGGLVQAGGSLRISCAASGSIFPYNDMGWYRQAPGKERELVAVITSSGGSTYYADSVKGRFTISRDNAKNTVYLQMNSLKPEDTAVYYCAARGYNYYFGGYDYWGQGTQVTVSS	low polyreactivity
QVQLVESGGGLVQAGGSLRISCAASGSIFSFYAMGWYRQAPGKERELVAAISSGGSTYYADSVKGRFTISRDNAKNTVYLQMNSLKPEDTAVYYCAHGFAQYGLDLDPGDYDYWGQGTQVTVSS	low polyreactivity
QVQLVESGGGLVQAGGSLRISCAASGSIFTSNVMGWYRQAPGKERELVAAITITGTTNYADSVKGRFTISRDNAKNTVYLQMNSLKPEDTAVYYCAKRYYRFYQGWPPEDYWGQGTQVTVSS	low polyreactivity
QVQLVESGGGLVQAGGSLRISCAASGSIFVEYDMGWYRQAPGKERELVADISGTGNTYYADSVKGRFTISRDNAKNTVYLQMNSLKPEDTAVYYCAAGTYYQNYWSPFVWYDYWGQGTQVTVSS	high polyreactivity
QVQLVESGGGLVQAGGSLRISCAASGSIFYNYAMGWYRQAPGKERELVAAINRSGGITFYADSVKGRFTISRDNAKNTVYLQMNSLKPEDTAVYYCAADRSFGHHYWYTGKRYDYWGQGTQVTVSS	low polyreactivity
QVQLVESGGGLVQAGGSLRISCAASGSILDGNAMGLYRQAPGKERELFAGISESDGSTNYADSVKGRFTISRDNAKNTVYLQMNSLNPEDTAVYYCAADIWTCGDIPYDYWGQGTQVTVSS	low polyreactivity

Sequence	polyreactivity (PSR sort gate)
QVQLVESGGGLVQAGGSLRISCAASGSNLSPYVMGWYRQAPGKERELVSTISRSGGRTYYADSEKGRFTISRDNAKNTFNLQMNSLKPEDTAVYYCAREDWGSYSDMDSWGQGTQVTVSS	low polyreactivity
QVQLVESGGGLVQAGGSLRISCAASGSTFDGYAMGWYRQAPGKERELVAAITRGGSTNYADSVKGRFTISRDNAKNTVYLQMNSLKPEDTAVYYCNARLWKRYPYDGYGYWGQGTQVTVSS	high polyreactivity
QVQLVESGGGLVQAGGSLRISCAASGSTFDYDDMRWYRQAPGKERELVASITSGGITDYADSVKGRFTISRDNAKNTVYLQMNSLTPEDTAVYYCNAARQYSRSAEGYLVWGYSWGQGTQVTVSS	low polyreactivity
QVQLVESGGGLVQAGGSLRISCAASGSTFEDNAMGWYRQAPGKERELVAAITSGGNTYYADSVKGRFTISRDNSKNTVYLQMNSLKPEDTAVYYCNAVPFYYDFDYWGQGTQVTVSS	low polyreactivity
QVQLVESGGGLVQAGGSLRISCAASGSTFGPYAMGWYRQAPGKERELVAAIRWSDGSTYYADSVKGRFTISRDNANNTVYLQMNTLKPEDTAVSYCAVDGYGYNDDYWGQGTQVTVSS	high polyreactivity
QVQLVESGGGLVQAGGSLRISCAASGSTFNINAMGWYRQAPGKERELVAAIRYRGGSTNYADSVKGRFTISRDNAKNNVYLQMNSLKPEDTAVYYCAATYSRHTNGYSKYCYWGQGTQVTVSS	high polyreactivity
QVQLVESGGGLVQAGGSLRISCAASGSTFPYNAMGWYRQAPGKERELVATIDRGSTTNYADSVKGRFTISRDNAKNTVYLQMNSLKPEDTAVYYCAADANGYYNYDYWGQGTQVTVSS	low polyreactivity
QVQLVESGGGLVQAGGSLRISCAASGSTFQGYAMGWYREAPGKERELVAAISGRSGSTYYADSVKGRFTISRDNAKNTVFLTMNSLKPVDSAVYYCNARFNRSRRTYDYWVQGTQVTVSS	high polyreactivity
QVQLVESGGGLVQAGGSLRISCAASGSTFQLYSMGWSRQAPGKEREFVAAITYSGGGSTSYADSVKGRFTISRDNAKNTVYLQMNSLKPEDTAVFYCAARDFETDGYTLVAYNYWGQGSQVTVSS	low polyreactivity
QVQLVESGGGLVQAGGSLRISCAASGSTFVRNAMGWYRQAHGKERELVAAISVDGSSTYDADSVKGRFTISRDNAKNTVYLQMNSLKREDTAVYYCNADWEYRDFYDITYDYWGQGTQVTVSS	low polyreactivity
QVQLVESGGGLVQAGGSLRISCAASGSTFWYYAMGRYREAPGKERELVAAIRRGGSTYYADSVKGRFTISRDNAKNTVYLQLNSLKPDDTAGYYCAAERPYKTFGYGDWGQGTQVTVSS	high polyreactivity
QVQLVESGGGLVQAGGSLRISCAASGSTFYIYAMGWYRPAPGKERELVAAIRRSGGSTYYADSVKGRFTISRDNAKNTVYLQMNSLKPEDTAVYYCATRYLWRPRPYDYWGQGTQVTVSS	high polyreactivity
QVQLVESGGGLVQAGGSLRISCAASGSTLRRYAMGWYRQAPGKERELVAAISGSGDSTYYADSVKGRFTISRDNAKNTVYLQMNSLKPEDTAVYYCNAVYAFNGYDYWGQGTQVTVSS	low polyreactivity
QVQLVESGGGLVQAGGSLRISCAASGSTVHYMAWYRQAPGKEREMVAGISWSGGSTYYADSVKGRFTISRDNAKNTVYLQMNSLKPEETAVYYCAADHFNYTSGRDYWGQGTQVTVSS	low polyreactivity
QVQLVESGGGLVQAGGSLRISCAASGYIFRFNAMGCYRPAPGKERELVAVITSGARTYYADSVKGRFTISRDNAKNTVYLQMNSLKPEDNAVYYCNAGARRYLYDYWGQGTQVTVSS	low polyreactivity
QVQLVESGGGLVQAGGSLRISCAASGYTFKNNTMGWYRQAPGKERELVAAISVSGGSTYYADSVKGRFTISRDNAKKTVYLQMNSLKPEDTAVYYCTALREVPLFLVYIGGCYWGQGTQVTVSS	low polyreactivity
QVQLVESGGGLVQAGGSLRISCAASGYTFYSNAMGWYRQAPGKERELVASIRSRGRSTYYADSVKGRFTISRDNAKYSVYLQMNSLNPEDTAVYYCAALRNKPAVYAYDYWGQGTQVTVSS	low polyreactivity
QVQLVESGGGLVQAGGSLRISCAPSGGILYHYVMGWYRQAPGTERELVAAISRAGRTYYADSVKGRFTISRDNAKNTVYLQMNSLKPEDTAVYYCNAYFRYFYWGLGTQVTVSS	high polyreactivity
QVQLVESGGGLVQAGGSLRISCAPSGIIFEYYALGCSRQAPGKEREVVAAIFSGGSTYYADSVKGRFTISRDNAKNTVYLLMNSLKAEDNAVYYCAAEYLAWGQGTQVTVSS	high polyreactivity
QVQLVESGGGLVQAGGSLRISCAPSGLIFKYNAMGWYRQAPGKERDLVADINRSGGSTYYADSVKCRFTISRDNAKNTVYLQMNSLKPEDTEVYYCAAERDSLYWVLFGYWGQGTQVTVSS	low polyreactivity
QVQLVESGGGLVQAGGSLRISCASSGSTFGYYAIGWYRQAPGKESELVAAIRRSGGRTYYADSVKGRFTISRDNAKNTVYLQLNSLKPEDTAVYYCAKDGYSRRNSQKTPYDYWGQGTQVTVSS	low polyreactivity
